The values below come from PMC7467306.

pKd: −log10 of the molar value.

Experiment [1] concerns the target His-tagged domain 11 (D11) of human IGF2R (human) (UniProt P11717). Kind of experiment: radioligand binding; competition of unlabeled ligand (10^-12-10^-6 M) with [125I]-monoiodotyrosyl-Tyr2-IGF2 (43000 cpm, 0.02 nM) for D11 held in wells on iBodies; 16 h at 5 °C, HEPES binding buffer pH 7.6 with 1 % BSA; one-site fit with ligand depletion, Kd of the tracer set to 2 nM.

Experiment [2] addresses human insulin receptor isoform A (human) (UniProt P06213). Kind of experiment: radioligand binding; competition with [125I]-monoiodotyrosyl-TyrA14-insulin on intact human IM-9 lymphocytes (human IR-A).
Sequence of UniProt P06213 (P06213 other isoform, or with tags, fused parts or gaps): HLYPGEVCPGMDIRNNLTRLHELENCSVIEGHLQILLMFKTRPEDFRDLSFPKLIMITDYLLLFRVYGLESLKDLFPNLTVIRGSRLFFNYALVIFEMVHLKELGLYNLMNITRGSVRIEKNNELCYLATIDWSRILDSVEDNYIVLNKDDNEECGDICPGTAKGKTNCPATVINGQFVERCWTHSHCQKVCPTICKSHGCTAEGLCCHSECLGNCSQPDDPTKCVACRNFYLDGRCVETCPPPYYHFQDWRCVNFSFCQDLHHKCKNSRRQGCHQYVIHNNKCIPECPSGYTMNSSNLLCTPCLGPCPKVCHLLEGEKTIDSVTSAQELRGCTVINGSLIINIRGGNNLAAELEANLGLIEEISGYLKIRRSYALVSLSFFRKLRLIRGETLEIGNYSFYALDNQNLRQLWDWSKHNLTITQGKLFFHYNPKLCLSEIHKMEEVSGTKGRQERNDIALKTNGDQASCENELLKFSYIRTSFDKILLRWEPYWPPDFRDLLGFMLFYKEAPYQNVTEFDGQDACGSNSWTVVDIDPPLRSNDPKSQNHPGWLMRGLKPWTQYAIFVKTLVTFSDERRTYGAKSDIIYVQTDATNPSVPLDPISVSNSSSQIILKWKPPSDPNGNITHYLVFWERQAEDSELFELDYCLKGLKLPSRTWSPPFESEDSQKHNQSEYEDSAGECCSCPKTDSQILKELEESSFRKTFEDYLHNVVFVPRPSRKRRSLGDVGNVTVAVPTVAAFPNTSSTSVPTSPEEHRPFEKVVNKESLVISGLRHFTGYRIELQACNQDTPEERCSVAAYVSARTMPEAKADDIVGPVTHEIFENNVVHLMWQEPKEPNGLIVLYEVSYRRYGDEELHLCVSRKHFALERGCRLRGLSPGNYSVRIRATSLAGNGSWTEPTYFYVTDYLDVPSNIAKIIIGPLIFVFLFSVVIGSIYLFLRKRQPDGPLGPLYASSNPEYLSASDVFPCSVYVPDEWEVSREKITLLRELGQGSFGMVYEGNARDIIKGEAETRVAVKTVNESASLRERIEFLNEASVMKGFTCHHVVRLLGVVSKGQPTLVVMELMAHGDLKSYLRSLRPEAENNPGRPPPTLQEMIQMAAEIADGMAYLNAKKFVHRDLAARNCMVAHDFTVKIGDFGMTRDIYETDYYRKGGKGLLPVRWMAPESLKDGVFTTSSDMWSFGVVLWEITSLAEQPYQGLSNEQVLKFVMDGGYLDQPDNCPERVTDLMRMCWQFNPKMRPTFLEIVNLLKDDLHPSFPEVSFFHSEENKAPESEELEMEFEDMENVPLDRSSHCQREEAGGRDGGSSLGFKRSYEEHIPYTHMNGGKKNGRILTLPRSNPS
Experiment [3] addresses human IGF-1 receptor (human) (UniProt P08069). Kind of experiment: radioligand binding; competition with [125I]-monoiodotyrosyl-IGF1 on intact mouse fibroblasts transfected with human IGF-1R and with deleted mouse IGF-1R.

Sequence of UniProt P11717 (P11717 1508-1651): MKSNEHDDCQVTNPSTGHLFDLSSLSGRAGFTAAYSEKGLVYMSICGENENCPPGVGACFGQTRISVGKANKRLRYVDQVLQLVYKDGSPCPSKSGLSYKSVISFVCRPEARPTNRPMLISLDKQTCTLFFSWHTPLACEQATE

Regarding Leu19-IGF2 analog (ligand), the pKd was 9.55 in experiment [1], 8.14 in experiment [2] and 8.96 in experiment [3].
